B1: Cyclin-dependent kinase inhibitor 2A (Homo sapiens), P42771 (parent)
chain: MEPAAGSSMEPSADWLATAAARGRVEEVRALLEAGALPNAPNSYGRRPIQVMMMGSARVAELLLLHGAEPNCADPATLTRPVHDAAREGFLDTLVVLHRAGARLDVRDAWGRLPVDLAEELGHRDVARYLRAAAGGTRGSNHARIDAAEGPSDIPD

What was measured:
cdk4_human CDK4, P11802 [1] = variants of: B1; conditions: with cdk4_human CDK4, P11802
cdk4_human CDK4, P11802 [2] = variants of: B1; conditions: with cdk4_human CDK4, P11802; remark: listed apart in the source
cdk6_human CDK6, Q00534 = variants of: B1; conditions: with cdk6_human CDK6, Q00534
cdk6_human CDK6, Q00534, sequence (Q00534 whole entry): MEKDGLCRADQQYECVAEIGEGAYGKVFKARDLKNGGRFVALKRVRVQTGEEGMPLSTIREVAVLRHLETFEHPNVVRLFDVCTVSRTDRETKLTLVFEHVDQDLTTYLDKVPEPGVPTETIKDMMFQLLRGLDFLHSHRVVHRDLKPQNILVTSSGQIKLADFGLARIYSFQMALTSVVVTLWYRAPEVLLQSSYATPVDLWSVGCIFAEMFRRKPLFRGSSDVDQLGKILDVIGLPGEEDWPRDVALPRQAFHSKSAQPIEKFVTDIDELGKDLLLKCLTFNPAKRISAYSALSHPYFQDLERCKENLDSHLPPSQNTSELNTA

cdk4_human CDK4, P11802, sequence (P11802 whole entry): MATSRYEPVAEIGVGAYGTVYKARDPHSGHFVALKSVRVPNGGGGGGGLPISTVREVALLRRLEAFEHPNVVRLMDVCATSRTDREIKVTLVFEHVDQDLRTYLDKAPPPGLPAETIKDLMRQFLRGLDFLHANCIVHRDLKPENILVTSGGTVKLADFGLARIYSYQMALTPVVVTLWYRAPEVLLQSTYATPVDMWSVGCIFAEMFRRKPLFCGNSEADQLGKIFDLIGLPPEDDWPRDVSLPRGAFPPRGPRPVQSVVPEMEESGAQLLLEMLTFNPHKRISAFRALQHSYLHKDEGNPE

Row | Variant | effect of a mutation on the interaction (cdk4_human CDK4, P11802 [1]) | effect of a mutation on the interaction (cdk4_human CDK4, P11802 [2]) | effect of a mutation on the interaction (cdk6_human CDK6, Q00534)
1 | R24P | disrupting interaction |  | 
2 | A20P | disrupting interaction | disrupting interaction strength | disrupting interaction

Reference: IntAct's records for PubMed 17909018
